Experimental data taken from patent US20050147555A1 (BRACCO SUISSE, published 2005).
Like-named read-outs stand apart in the source and are kept apart here. Blank lines part the entries; values can stand above or below the binder they belong to. Positions of bridges follow the written chain, without caps; N, C: chain ends. Groups on a side chain read outwards from the residue. Primed or numbered codes have the meaning given here. Chains are numbered I, II in the order given. No end group written: not given here. *: point of attachment. ivDde′ = 1-(4,4-dimethyl-2,6-dioxocyclohex-1-ylidene)-3-methylbutyl, CC(C)CC(=C1C(=O)CC(C)(C)CC1=O)*; Biotin = O=C1N[C@H]2[C@H](CS[C@H]2CCCCC(=O)*)N1; AEEA = NCCOCCOCC(=O)O

Legend:
[1] = molecular target: T1, KDR (VEGFR-2, Flk-1), full-length receptor on cells (human, UniProt P35968 20-1356); test: competition: corresponding free peptide against P12-conjugated microbubbles on KDR-transfected 293H cells, % binding (surface covered, relative)
T1 construct: whole, on cells; endogenous on HUVECs in the functional assays; also called VEGF receptor 2
T1 sequence (P35968 20-1356): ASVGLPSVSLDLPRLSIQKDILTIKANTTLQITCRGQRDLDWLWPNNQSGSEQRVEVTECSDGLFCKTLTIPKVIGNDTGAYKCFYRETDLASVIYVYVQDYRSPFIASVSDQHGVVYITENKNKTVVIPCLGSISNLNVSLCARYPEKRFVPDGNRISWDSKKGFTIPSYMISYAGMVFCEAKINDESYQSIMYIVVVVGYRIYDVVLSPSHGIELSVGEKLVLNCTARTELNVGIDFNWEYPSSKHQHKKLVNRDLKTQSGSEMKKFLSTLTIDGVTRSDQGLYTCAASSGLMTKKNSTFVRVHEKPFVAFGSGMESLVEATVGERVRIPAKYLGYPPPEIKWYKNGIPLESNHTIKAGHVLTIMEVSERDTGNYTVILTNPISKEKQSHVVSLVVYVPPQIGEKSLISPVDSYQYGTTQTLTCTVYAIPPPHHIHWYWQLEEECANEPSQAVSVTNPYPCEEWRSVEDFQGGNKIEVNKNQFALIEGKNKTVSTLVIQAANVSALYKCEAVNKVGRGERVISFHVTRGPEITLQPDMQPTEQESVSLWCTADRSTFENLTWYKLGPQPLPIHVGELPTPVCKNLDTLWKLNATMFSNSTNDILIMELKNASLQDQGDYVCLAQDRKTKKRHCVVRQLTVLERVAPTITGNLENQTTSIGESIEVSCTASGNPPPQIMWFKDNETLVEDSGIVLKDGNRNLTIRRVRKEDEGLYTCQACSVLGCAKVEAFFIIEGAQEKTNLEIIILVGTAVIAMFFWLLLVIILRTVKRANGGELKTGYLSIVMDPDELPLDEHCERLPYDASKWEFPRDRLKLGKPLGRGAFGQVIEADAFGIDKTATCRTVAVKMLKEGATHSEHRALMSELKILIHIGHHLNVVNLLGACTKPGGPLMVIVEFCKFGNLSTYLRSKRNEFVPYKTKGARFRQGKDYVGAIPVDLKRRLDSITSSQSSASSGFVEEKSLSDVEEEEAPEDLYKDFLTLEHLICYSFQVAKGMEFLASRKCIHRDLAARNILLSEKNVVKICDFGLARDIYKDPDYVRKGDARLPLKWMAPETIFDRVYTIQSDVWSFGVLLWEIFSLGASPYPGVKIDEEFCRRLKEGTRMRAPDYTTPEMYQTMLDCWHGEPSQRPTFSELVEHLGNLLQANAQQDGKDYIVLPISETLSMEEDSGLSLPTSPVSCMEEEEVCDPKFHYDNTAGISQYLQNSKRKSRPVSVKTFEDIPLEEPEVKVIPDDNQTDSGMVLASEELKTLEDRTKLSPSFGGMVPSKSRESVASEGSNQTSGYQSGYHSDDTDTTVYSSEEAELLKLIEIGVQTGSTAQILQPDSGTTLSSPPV
Method: (§1) The transfected cells were incubated with a suspension of peptide-conjugated microbubbles in presence or absence of the corresponding free peptide (between 100 μM to 3 nM). Competition was also performed using a non-binding control peptide as a competing compound. At the end of the incubation, the transfected cells were rinsed three times in PBS and examined under a microscope. Binding of the conjugated bubbles was quantified and expressed as a percent of the surface covered by the targeted microbubbles.

[2] = molecular target: T1, KDR (VEGFR-2, Flk-1), full-length …; test: P13-conjugated microbubbles on KDR-transfected 293H cells in the presence of rising free dimer (f5), % binding
Method: (§2) At the end of the incubation, the transfected cells were rinsed three times in PBS and examined under a microscope. Binding of the conjugated bubbles was quantified and expressed as a percentage of the surface covered by the targeted microbubbles.

[3] = molecular target: T1, KDR (VEGFR-2, Flk-1), full-length …; test: cell-based or functional assay
[4] = molecular target: T1, KDR (VEGFR-2, Flk-1), full-length …; test: competition with 125I-VEGF on KDR-transfected 293H cells
Method: Cells were used 24 h after transfection, and to prepare the cells for the assay, they were washed 3 times with room temperature M199 medium and placed in the refrigerator. […] Each dilution was added to three separate wells of mock and KDR transfected cells. After incubating at 4° C. for 2 h, the plates were washed 5 times with cold binding buffer, gently blotted dry and checked under a microscope for cell loss. 100 μL of solubilizing solution (2% Triton X-100, 10% Glycerol, 0.1% BSA) was added to each well and the plates were incubated at room temperature for 30 minutes. The solubilizing solution in each well was mixed by pipeting up and down, and transferred to 1.2 mL tubes. Each well was washed twice with 100 μL of solubilizing solution and the washes were added to the corresponding 1.2 mL tube.

[5] = molecular target: T2, murine KDR-Fc (recombinant, R&D Systems #443-KD-050) (murine, UniProt P35918 20-762); test: SPR (BIAcore), murine KDR-Fc 5000 RU; KD1 = kd1/ka1
T2 construct: Bought; also called rmKDR-Fc; recombinant murine KDR-Fc; not shown: Ig Fc region of the bought chimera
T2 sequence (P35918 20-762): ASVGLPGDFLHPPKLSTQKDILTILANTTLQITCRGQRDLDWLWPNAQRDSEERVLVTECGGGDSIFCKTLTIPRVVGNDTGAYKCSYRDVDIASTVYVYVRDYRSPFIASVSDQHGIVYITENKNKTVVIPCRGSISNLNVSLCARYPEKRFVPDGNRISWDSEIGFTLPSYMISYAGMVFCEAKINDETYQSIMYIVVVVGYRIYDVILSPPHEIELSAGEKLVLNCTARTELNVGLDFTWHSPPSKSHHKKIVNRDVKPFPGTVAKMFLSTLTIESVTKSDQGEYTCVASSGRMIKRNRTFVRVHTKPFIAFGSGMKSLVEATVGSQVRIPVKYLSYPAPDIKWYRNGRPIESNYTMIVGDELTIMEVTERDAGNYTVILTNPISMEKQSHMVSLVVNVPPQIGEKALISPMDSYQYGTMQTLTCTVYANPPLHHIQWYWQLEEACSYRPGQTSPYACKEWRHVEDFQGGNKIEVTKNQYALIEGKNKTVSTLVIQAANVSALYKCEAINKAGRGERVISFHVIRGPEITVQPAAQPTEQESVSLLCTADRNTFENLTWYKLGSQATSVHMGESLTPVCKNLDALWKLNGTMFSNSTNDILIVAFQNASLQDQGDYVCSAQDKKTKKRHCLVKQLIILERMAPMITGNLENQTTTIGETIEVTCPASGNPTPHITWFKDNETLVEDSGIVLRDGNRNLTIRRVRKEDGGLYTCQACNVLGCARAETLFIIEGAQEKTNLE

[6] = molecular target: T2, murine KDR-Fc (recombinant, R&D Systems …); test: SPR (BIAcore), murine KDR-Fc 2700 RU; KD1 = kd1/ka1
Method: All samples were injected in duplicate. For association, peptides were injected at 30 μL/min for 3 minutes using the kinject program. Following a 10 minute dissociation, any remaining peptide was stripped from the rmKDR-Fc surface with a quickinject of 50 mM NaOH+1M NaCl for 12s at 75 μL/min.
Sensorgrams were analyzed using the simultaneous ka/kd fitting program in the BIAevaluation software 3.1.

[7] = molecular target: T1, KDR (VEGFR-2, Flk-1), full-length …; test: competition with 125I-labeled VEGF for binding to KDR-transfected 293H cells, % inhibition of specific binding
From the text: (§3) After washing the cells, the bound radioactivity was quantitated on a gamma counter.

[8] = molecular target: T1, KDR (VEGFR-2, Flk-1), full-length …; test: displacement of P12-XB/streptavidin-HRP complex (5.5 nM) from KDR-expressing cells
[9] = molecular target: T1, KDR (VEGFR-2, Flk-1), full-length …; test: as above; remark: listed apart in the source
[10] = molecular target: T3, KDR-Fc (chimeric fusion of Ig Fc region with human KDR, R&D Systems #357-KD-050) (human, UniProt P35968 20-764); test: fluorescence polarisation against KDR-Fc
T3 construct: Bought; also called KDR Fc fusion; not shown: Ig Fc region of the bought chimera
T3 sequence (P35968 20-764, stated change not applied): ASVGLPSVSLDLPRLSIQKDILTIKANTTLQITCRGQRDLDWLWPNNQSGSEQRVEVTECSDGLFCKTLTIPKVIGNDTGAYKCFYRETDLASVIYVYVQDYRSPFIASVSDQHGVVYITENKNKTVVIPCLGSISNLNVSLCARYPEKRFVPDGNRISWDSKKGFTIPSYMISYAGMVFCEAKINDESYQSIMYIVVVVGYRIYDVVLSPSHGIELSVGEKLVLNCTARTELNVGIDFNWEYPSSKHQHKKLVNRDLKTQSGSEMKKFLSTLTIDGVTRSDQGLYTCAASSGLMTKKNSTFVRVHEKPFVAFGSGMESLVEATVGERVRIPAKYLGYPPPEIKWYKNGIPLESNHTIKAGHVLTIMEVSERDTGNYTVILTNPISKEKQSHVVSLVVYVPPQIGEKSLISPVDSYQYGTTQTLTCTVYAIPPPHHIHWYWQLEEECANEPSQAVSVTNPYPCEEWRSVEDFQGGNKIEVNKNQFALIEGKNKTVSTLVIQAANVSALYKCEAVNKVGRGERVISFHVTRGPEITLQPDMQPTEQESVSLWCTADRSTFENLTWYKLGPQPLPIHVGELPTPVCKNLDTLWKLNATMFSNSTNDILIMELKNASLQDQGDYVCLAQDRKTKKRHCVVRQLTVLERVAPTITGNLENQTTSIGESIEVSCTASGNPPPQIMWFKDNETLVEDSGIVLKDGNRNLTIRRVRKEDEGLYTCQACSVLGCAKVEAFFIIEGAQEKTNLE

[11] = molecular target: T1, KDR (VEGFR-2, Flk-1), full-length …; test: binding of the 99mTc-labeled scrambled dimer (D18 by legend paragraph 74; name box empty) to KDR- and mock-transfected 293H cells with and without 40% mouse serum, bound CPM
Method: Cells were used 24 h after transfection, and to prepare the cells for the assay, they were washed 1× with 100 μL of room temperature opti-MEMI with 0.1% HSA. […] Each dilution was added to three separate wells of mock and KDR-transfected cells. After incubating at room temperature for 1 h, the plates were washed 5 times with 100 μL of cold binding buffer (opti-MEMI with 0.1% HSA). 100 μL of solubilizing solution (0.5 N NaOH) was added to each well, and the plates were incubated at 37° C. for 10 minutes. The solubilizing solution in each well was mixed by pipeting up and down, and transferred to 1.2 mL tubes. Each well was washed once with 100 μL of solubilizing solution and the washes were added to the corresponding 1.2 mL tube.

[12] = molecular target: T1, KDR (VEGFR-2, Flk-1), full-length …; test: binding of the 125I-labeled dimer to KDR- and mock-transfected 293H cells with and without 40% mouse serum, CPM bound
Method: Binding was performed with and without 40% mouse serum to evaluate the serum effect on binding to KDR-transfected cells. After washing away the unbound compound, the cells in each well were lysed with 0.5 N NaOH and the lysates were counted with a gamma counter.

[13] = molecular target: T1, KDR (VEGFR-2, Flk-1), full-length …; test: competition with 125I-VEGF for specific binding to KDR-transfected 293H cells, % inhibition
From the text: as §3

[14] = molecular target: T1, KDR (VEGFR-2, Flk-1), full-length …; test: competition: free dimer against P13-conjugated microbubbles on KDR-transfected 293H cells, % binding
Method: as §2

[15] = molecular target: T1, KDR (VEGFR-2, Flk-1), full-length …; test: competition: corresponding free peptide against D23-conjugated microbubbles on KDR-transfected 293H cells, % binding (surface covered, relative)
Method: as §1

B2: P12-XB (peptide)
peptide: Ac-AGPTWCEDDWYYCWLFGTGGGK([AEEA-AEEA-Biotin])-NH2
modifications: disulfide 6-13
SMILES: CC(=O)N[C@@H](C)C(=O)NCC(=O)N1CCC[C@H]1C(=O)N[C@H](C(=O)N[C@@H](Cc1c[nH]c2ccccc12)C(=O)N[C@H]1CSSC[C@@H](C(=O)N[C@@H](Cc2c[nH]c3ccccc23)C(=O)N[C@@H](CC(C)C)C(=O)N[C@@H](Cc2ccccc2)C(=O)NCC(=O)N[C@H](C(=O)NCC(=O)NCC(=O)NCC(=O)N[C@@H](CCCCNC(=O)COCCOCCNC(=O)COCCOCCNC(=O)CCCC[C@@H]2SC[C@@H]3NC(=O)N[C@@H]32)C(N)=O)[C@@H](C)O)NC(=O)[C@H](Cc2ccc(O)cc2)NC(=O)[C@H](Cc2ccc(O)cc2)NC(=O)[C@H](Cc2c[nH]c3ccccc23)NC(=O)[C@H](CC(=O)O)NC(=O)[C@H](CC(=O)O)NC(=O)[C@H](CCC(=O)O)NC1=O)[C@@H](C)O
notes: Free monomeric peptide
IC50, VEGF-induced KDR phosphorylation in HUVECs [3]: 100 nM | % inhibition of 125I-VEGF binding at 0.3 µM [4]: 81% | % inhibition of 125I-VEGF binding at 30 µM [4]: 104%

Binder: GDSRVCWEDSWGGEVCFRYDP (disulfide 6-16 (inferred)) [P6]
% inhibition of 125I-VEGF binding at 0.3 µM [4]: 52.3% | % inhibition of 125I-VEGF binding at 30 µM [4]: 96.3%

Binder: Ac-GDWWECK(ivDde′)REEYRNTTWCAWADPGGGK-NH2 (disulfide 6-17 (inferred)) [P7-E]
VEGF-induced KDR phosphorylation in HUVECs (immunoblot) [3]: ≥ 50 % inhibition at 10 µM

B3: D1 (peptide)
peptide 1: AGPTWCEDDWYYCWLFGTGGGK
peptide 2: VCWEDSWGGEVCFRYDPGGGK
modifications: not fully specified; N-acetyl; C2-C12 disulfide; C-terminal Lys amide (printed as NH(CH2)4-(S)-CH(..NH)CONH2), side chain joined to linker; N-acetyl; C6-C13 disulfide; C-terminal amide; Lys22 side chain bears branch/linker
notes: J = 8-amino-3,6-dioxaoctanoyl; also called DI
IC50 in the activation assay against that of D2 [3]: ≥ 100 fold lower than D2

Binder: Ac-AQEPEGYAYWEVITLYHEEDGDGGK-NH2 [P9-D]
VEGF-induced KDR phosphorylation in HUVECs (immunoblot) [3]: ≥ 50 % inhibition at 10 µM

Binder: Ac-AQAFPRFGGDDYWIQQYLRYTDGGK-NH2 [P10-D]
VEGF-induced KDR phosphorylation in HUVECs (immunoblot) [3]: ≥ 50 % inhibition at 10 µM

Binder: Ac-DWYYGGGK-NH2 [F1]
IC50 [8]: 850 nM

Binder: Ac-AGWLECYAEFGHCYNFGTGGGK-NH2 (disulfide 6-13 (inferred)) [P3-D]
VEGF-induced KDR phosphorylation in HUVECs (immunoblot) [3]: ≥ 50 % inhibition at 10 µM

Binder: Ac-AGWIECYHPDGICYHFGTGGGK-NH2 (disulfide 6-13 (inferred)) [P2-D]
VEGF-induced KDR phosphorylation in HUVECs (immunoblot) [3]: ≥ 50 % inhibition at 10 µM

Binder: AGDSWCSTEYTYCEMIGT (disulfide 6-13; not fully specified) [P4]
Kd [10]: > 2000 nM

Binder: Ac-GDSRVCWEDSWGGEVCFRYDPGGGK-NH2 (disulfide 6-16 (inferred)) [P6-D]
IC50, VEGF-induced KDR phosphorylation in HUVECs [3]: 1000 nM | VEGF-induced KDR phosphorylation in HUVECs (immunoblot) [3]: ≥ 50 % inhibition at 10 µM

Binder: Ac-AQGDYVYWEIIELTGATDHTPPGGGK-NH2 [P11-D]
VEGF-induced KDR phosphorylation in HUVECs (immunoblot) [3]: ≥ 50 % inhibition at 10 µM

Binder: Ac-GDPDTCTMWGDSGRWYCFPADPGGGK-NH2 (disulfide 6-17 (inferred)) [P8-D]
VEGF-induced KDR phosphorylation in HUVECs (immunoblot) [3]: ≥ 50 % inhibition at 10 µM

Results, then the binder that gave them:

binding result [1]: binds
B1: P12 (peptide)
peptide: AGPTWCEDDWYYCWLFGT
modifications: disulfide 6-13
notes: the list holds only the microbubble conjugate m56 and other P12 derivatives

binding result [2]: binds
Binder: AQDWYYDEILSMADQLRHAFLSGG (also: conjugated to microbubbles) [P13 conjugated to microbubbles]

Kd [5]: 33.6 nM | Kd [6]: 36.4 nM
Binder: Ac-AGPTWCEDDWYYCWLFGTGGGK-NH2 (disulfide 6-13; also: fluorescein label (site not given here)) [Fluorescein labeled P12-G]

binding result [7]: binds
B4: D2 (peptide)
peptide 1: AGPTWCEDDWYYCWLFGTGGGK
peptide 2: AGPTWCEDDWYYCWLFGTK
modifications: not fully specified; N-acetyl; C6-C13 disulfide; J (8-amino-3,6-dioxaoctanoyl) between Thr18 and the C-terminal Lys amide, whose side chain is joined to the linker; N-acetyl; C6-C13 disulfide; C-terminal amide; Lys22 side chain bears branch/linker

binding result [7]: binds
B5: D3 (peptide)
peptide 1: VCWEDSWGGEVCFRYDPGGGK
peptide 2: VCWEDSWGGEVCFRYDPGGGK
modifications: not fully specified; N-acetyl; C2-C12 disulfide; C-terminal Lys amide, side chain joined to linker; N-acetyl; C2-C12 disulfide; C-terminal amide; Lys21 side chain bears Biotin-JJK branch and linker

IC50 [9]: 108 nM
B6: P34-L (peptide)
peptide: Ac-AGPTWKEDDWYYEWLFGTGGGK-NH2
modifications: lactam 6-13
SMILES: CC(=O)N[C@@H](C)C(=O)NCC(=O)N1CCC[C@H]1C(=O)N[C@H](C(=O)N[C@@H](Cc1c[nH]c2ccccc12)C(=O)N[C@H]1CCCCNC(=O)CC[C@@H](C(=O)N[C@@H](Cc2c[nH]c3ccccc23)C(=O)N[C@@H](CC(C)C)C(=O)N[C@@H](Cc2ccccc2)C(=O)NCC(=O)N[C@H](C(=O)NCC(=O)NCC(=O)NCC(=O)N[C@@H](CCCCN)C(N)=O)[C@@H](C)O)NC(=O)[C@H](Cc2ccc(O)cc2)NC(=O)[C@H](Cc2ccc(O)cc2)NC(=O)[C@H](Cc2c[nH]c3ccccc23)NC(=O)[C@H](CC(=O)O)NC(=O)[C@H](CC(=O)O)NC(=O)[C@H](CCC(=O)O)NC1=O)[C@@H](C)O
notes: also called lactam analog of P12-G

IC50, VEGF-induced migration of HUVECs [3]: 5 nM
B7: D24 (peptide)
peptide 1: AGPTWCEDDWYYCWLFGTGGGK
peptide 2: VCWEDSWGGEVCFRYDPGGGK
modifications: not fully specified; N-acetyl; C2-C12 disulfide; C-terminal amide; Lys21 side chain joined to JJ-glutaryl linker; N-acetyl; C6-C13 disulfide; C-terminal amide; Lys22 side chain bears SATA-JJ-Lys branch

binding result [11]: no binding (tested: 10.0 uCi/mL)
B8: 99mTc-labeled D18 (peptide)
peptide 1: Ac-APGTWCDYDWEYCWLGTFGGGK-NH2
peptide 2: Ac-GVDFRCEWSDWGEVGCRSPDYGGGK-NH2
modifications: disulfide I:6-I:13, II:6-II:16; not fully specified (some residues, bridges); printed as Ac-APGTWC*DYDWEYC*WLGTFGGGK{PnAO6-Glut-K[Ac-GVDFRC*EWSDWGEVGC*RSPDYGGGK(JJ-Glut)-NH2]}—NH2; also: 99mTc complex on PnAO6
notes: also called scrambled derivative of D10

binding result [12]: binds
B9: 125I-labeled D5 (peptide)
peptide 1: VCWEDSWGGEVCFRYDPGGGK
peptide 2: AGPTWCEDDWYYCWLFGTGGGK
modifications: not fully specified; N-acetyl; C6-C13 disulfide; C-terminal Lys amide, side chain carries the branching Lys; 125I Bolton-Hunter label on the free amine; N-acetyl; C2-C12 disulfide; C-terminal amide; Lys21 side chain joined to JJ-glutaryl linker

binding result [7]: binds
Binder: Ac-AQDWYYDEILSMADQLRHAFLSGG-NH2 [P13-D]

IC50, VEGF-induced migration of HUVECs [3]: ~250 nM
B10: D17 (peptide)
peptide 1: AQDWYYDEILGRGGRGGRGGK
peptide 2: VCWEDSWGGEVCFRYDPGGGK
modifications: not fully specified; N-acetyl; C2-C12 disulfide; C-terminal amide; Lys21 side chain joined to JJ-glutaryl linker; N-acetyl; J (8-amino-3,6-dioxaoctanoyl) between Leu10 and the next Gly; C-terminal Lys side chain bears the branching Lys; C-terminal amide

binding result [13]: binds
B11: PG-1 (peptide)
peptide: Ac-ERVTTCWPGEYGGVECYSVAY-NH2
modifications: not fully specified (bridges); printed as Ac-ERVTTCWPGEYGGVECYSVAY—NH2; cysteine pairing not given here

IC50 (read off the curve) [14]: ~20 nM | IC50 (read off the curve) [15]: ~30 nM
B12: D23 (peptide)
P12-derived peptide: Ac-AGPTWCEDDWYYCWLFGTGGGK-NH2
truncated P6-derived peptide: Ac-VCWEDSWGGEVCFRYDPGGGK-NH2
modifications: disulfide I:6-I:13, II:2-II:12; not fully specified (bridges)
notes: Free, not on microbubbles (the list holds only the conjugate m37); The text says only 'corresponding free' dimeric peptide; also called free dimer
